Reference: patent US20260092115A1 (Chugai, published 2026)

What was measured:
[1] = target: T1, human CTLA4 (soluble analyte of the Biacore assays of Examples 3-3, 4 and 5) (human, UniProt P16410 36-161); test: SPR 37C, Ab on Protein G, 1000 nM CTLA4, no ATP
T1 construct: also called hCTLA4
T1 sequence: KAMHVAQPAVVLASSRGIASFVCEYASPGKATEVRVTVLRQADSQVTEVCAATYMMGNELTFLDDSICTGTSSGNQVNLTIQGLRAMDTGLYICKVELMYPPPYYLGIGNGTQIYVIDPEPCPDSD
Protocol: (§1) Next, by interacting with a human CTLA4 solution prepared in a running buffer containing ATP to the desired concentration, or a human CTLA4 solution prepared in a running buffer containing no ATP, the binding ability of the antibody to human CTLA4 in the presence or absence of ATP was evaluated. Chips were regenerated with 25 mM NaOH and 10 mM Glycine-HCl (pH 1.5), and assay was performed by repeatedly capturing antibodies. The dissociation constant of each antibody for CTLA4 was calculated using Biacore T200 Evaluation Software 2.0. Specifically, the binding rate constant ka (L/mol/s) and the dissociation rate constant kd (1/s) were calculated by global fitting of the sensorgrams obtained by the measurement, using a 1:1 Langmuir binding model. The dissociation constant KD (mol/L) was calculated from those values. Alternatively, the dissociation constant KD (mol/L) was calculated by the steady state model. In addition, the binding amount of CTLA4 per unit amount of antibody was calculated by correcting the amount of CTLA4 bound as calculated from the sensorgram obtained by the assay with the amount of antibody captured onto the chip surface.
(§2) Biacore T200 was used to evaluate the binding of the generated variants to ATP and to human CTLA4. The assay of binding to ATP was performed at 37° C. using 20 mM ACES (pH 7.4), 150 mM NaCl, 2 mM MgCl₂, 0.05% Tween20 as the running buffer. First, Sure Protein A (GE Healthcare) was immobilized onto a Series S Sensor Chip CM3 (GE Healthcare), and the antibodies were captured onto the chip by interacting an antibody solution prepared in the running buffer. Next, the binding ability to the antibody was evaluated by interacting with an ATP solution prepared in the running buffer. Chips were regenerated with 25 mM NaOH and 10 mM Glycine-HCl (pH 1.5) and assay was performed by repeatedly capturing antibodies. For the binding amount of each antibody to ATP, the binding amount of ATP per unit amount of antibody was calculated by correcting the amount of binding when ATP was injected at a concentration of 100 nM with the amount of antibody captured onto the chip surface. Binding to human CTLA4 was measured using Biacore T200 by the method described in Example 3-3.

[2] = target: T1, human CTLA4 (soluble analyte of the …); test: SPR 37C, Ab on Protein G, 1000 nM CTLA4, ATP 1 uM
Protocol: as §1, §2

[3] = target: T1, human CTLA4 (soluble analyte of the …); test: SPR 37C, Ab on Protein G, 1000 nM CTLA4, ATP 10 uM
Protocol: as §1, §2

[4] = target: T1, human CTLA4 (soluble analyte of the …); test: SPR 37C, Ab on Protein G, 1000 nM CTLA4, ATP 100 uM
Protocol: as §1, §2

mCTLA4-His = target: T2, mCTLA4-His (mouse, UniProt P09793 36-161); test: SPR 37C, ATP 100 µM
T2 construct: also called mouse CTLA4; Mouse CTLA4

[5] = target: T1, human CTLA4 (soluble analyte of the …); test: SPR 37C, ATP 10 µM
Protocol: as §1, with “Biacore T200 was used to measure the binding of the generated antibodies to human CTLA4. 20 mM ACES (pH 7.4), 150 mM NaCl, 2 mM MgCl₂, 0.05% Tween 20 with ATP added to the desired concentration was used as the running buffer, and the assay was performed at 37° C. First, Protein G (CALBIOCHEM) was immobilized onto a Series S Sensor Chip CM3 (GE Healthcare), and the antibodies were captured by interacting an antibody solution prepared in an ATP-free running buffer with the chip. Next,” for “Next,”, “In addition, the binding amount of CTLA4 per unit amount of antibody was calculated by correcting the amount of CTLA4 bound as calculated from the sensorgram obtained by the assay with the amount of antibody captured onto the chip surface.” left out

[6] = target: T1, human CTLA4 (soluble analyte of the …); test: SPR 37C, Ab on Protein G, 1000 nM CTLA4, no ATP; no ATP; binding amount at 1000 nM CTLA4
Protocol: as §1, with “Biacore T200 was used to measure the binding of the generated antibodies to human CTLA4. 20 mM ACES (pH 7.4), 150 mM NaCl, 2 mM MgCl₂, 0.05% Tween 20 with ATP added to the desired concentration was used as the running buffer, and the assay was performed at 37° C. First, Protein G (CALBIOCHEM) was immobilized onto a Series S Sensor Chip CM3 (GE Healthcare), and the antibodies were captured by interacting an antibody solution prepared in an ATP-free running buffer with the chip. Next,” for “Next,”
(§3) The KD values marked with an * in the table were calculated using the steady state model. It was shown that all the variants prepared using 04H0150-G1m/04L0072-lam1 as the parent antibody had enhanced binding in the presence of ATP as compared to 04H0150-G1m/04L0072-lam1.

[7] = target: T1, human CTLA4 (soluble analyte of the …); test: SPR 37C, Ab on Protein G, 1000 nM CTLA4, ATP 1 uM; ATP 1 uM; binding amount at 1000 nM CTLA4
Protocol: as §1, with “Biacore T200 was used to measure the binding of the generated antibodies to human CTLA4. 20 mM ACES (pH 7.4), 150 mM NaCl, 2 mM MgCl₂, 0.05% Tween 20 with ATP added to the desired concentration was used as the running buffer, and the assay was performed at 37° C. First, Protein G (CALBIOCHEM) was immobilized onto a Series S Sensor Chip CM3 (GE Healthcare), and the antibodies were captured by interacting an antibody solution prepared in an ATP-free running buffer with the chip. Next,” for “Next,”
as §3

[8] = target: T1, human CTLA4 (soluble analyte of the …); test: SPR 37C, Ab on Protein G, 1000 nM CTLA4, ATP 10 uM; ATP 10 uM; binding amount at 1000 nM CTLA4
Protocol: as §1, with “Biacore T200 was used to measure the binding of the generated antibodies to human CTLA4. 20 mM ACES (pH 7.4), 150 mM NaCl, 2 mM MgCl₂, 0.05% Tween 20 with ATP added to the desired concentration was used as the running buffer, and the assay was performed at 37° C. First, Protein G (CALBIOCHEM) was immobilized onto a Series S Sensor Chip CM3 (GE Healthcare), and the antibodies were captured by interacting an antibody solution prepared in an ATP-free running buffer with the chip. Next,” for “Next,”
as §3

[9] = target: T1, human CTLA4 (soluble analyte of the …); test: SPR 37C, Ab on Protein G, 1000 nM CTLA4, ATP 100 uM; ATP 100 uM; binding amount at 1000 nM CTLA4
Protocol: as §1, with “Biacore T200 was used to measure the binding of the generated antibodies to human CTLA4. 20 mM ACES (pH 7.4), 150 mM NaCl, 2 mM MgCl₂, 0.05% Tween 20 with ATP added to the desired concentration was used as the running buffer, and the assay was performed at 37° C. First, Protein G (CALBIOCHEM) was immobilized onto a Series S Sensor Chip CM3 (GE Healthcare), and the antibodies were captured by interacting an antibody solution prepared in an ATP-free running buffer with the chip. Next,” for “Next,”
as §3

Binder	Binding to Human CTLA4 (amount per unit antibody) [1]	Binding to Human CTLA4 (amount per unit antibody) [2]	Binding to Human CTLA4 (amount per unit antibody) [3]	Binding to Human CTLA4 (amount per unit antibody) [4]	fold weaker binding ability to mouse CTLA4 than to human CTLA4 (mCTLA4-His) [fold]	fold enhancement of binding ability against the parent antibody 04H1207-G1m/04L1086-lam1 [5] [fold]	Binding to Human CTLA4 (amount per unit antibody) [6]	Binding to Human CTLA4 (amount per unit antibody) [7]	Binding to Human CTLA4 (amount per unit antibody) [8]	Binding to Human CTLA4 (amount per unit antibody) [9]	fold enhancement of binding ability against the parent antibody 04H1208-G1m/04L1086-lam1 [5] [fold]
04H1389-G1m/04L1305-k0MT (antibody, human IgG1, kappa) heavy: not shown light: DIVMTQSPLSLPVTPGEPASISCDGPSTGVGDYNYVHWYQQKPGQAPRLLIYFTSKKPSGVPDRFSGSGSGTDFTLKISRVEAEDVGVYYCQTYAAPLGPMFGQGTKLEIKRTVAAPSVFIFPPSDEQLKSGTASVVCLLNNFYPREAKVQWKVDNALQSGNSQESVTEQDSKDSTYSLSSTLTLSKADYEKHKVYACEVTHQGLSSPVTKSFNRGEC	0.03	0.12	0.154	0.151							
04H1389-G1m/04L1086-lam1 (antibody, human IgG1, lambda, V domains shown) VH: EVQLVESGGGLVKPGGSLRLSCAASGFTFSSKTMNWVRQAPGKGLEWVSSISTQSHYIYYAESVKGRFTISRDNAKNSLYLQMNSLRAEDTAVYYCARYGKREDMLWVFDYWGQGTLVTVSS VL: QSALTQPPSASGSPGQTVTISCDGPSTGVGDYNYVHWYQQHPGKAPKLMIYFTSKKPSGVPDRFSGSKSGNTASLTVSGLQAEDEADYFCQTYAAPLGPMFGGGTKLTVLG	0.022	0.138	0.189	0.193		~10					
04H1207-G1m/04L1086-lam1 (antibody, human IgG1, lambda, V domains shown) VH: EVQLVESGGGLVKPGGSLRLSCAASGFTFSSKTMNWVRQAPGKGLEWVSSISTRSGYIYYAESVKGRFTISRDNAKNSLYLQMNSLRAEDTAVYYCARYGKREDMLWVFDYWGQGTLVTVSS VL: QSALTQPPSASGSPGQTVTISCDGPSTGVGDYNYVHWYQQHPGKAPKLMIYFTSKKPSGVPDRFSGSKSGNTASLTVSGLQAEDEADYFCQTYAAPLGPMFGGGTKLTVLG	0.01	0.037	0.111	0.166			0.013	0.047	0.137	0.196	

Results, then the binder that gave them:

Binding to Human CTLA4 (amount per unit antibody) [1]	Binding to Human CTLA4 (amount per unit antibody) [2]	Binding to Human CTLA4 (amount per unit antibody) [3]	Binding to Human CTLA4 (amount per unit antibody) [4]	fold weaker binding ability to mouse CTLA4 than to human CTLA4 (mCTLA4-His) [fold]	fold enhancement of binding ability against the parent antibody 04H1207-G1m/04L1086-lam1 [5] [fold]	Binding to Human CTLA4 (amount per unit antibody) [6]	Binding to Human CTLA4 (amount per unit antibody) [7]	Binding to Human CTLA4 (amount per unit antibody) [8]	Binding to Human CTLA4 (amount per unit antibody) [9]	fold enhancement of binding ability against the parent antibody 04H1208-G1m/04L1086-lam1 [5] [fold]	Binder
				~2							04H1208-G1m/04L1407-k0MT (antibody, human IgG1, kappa, V domains shown) VH: EVQLVESGGGLVKPGGSLRLSCAASGFTFSSKTMNWVRQAPGKGLEWVSSISTRSGYIYYARSVKGRFTISRDNAKNSLYLQMNSLRAEDTAVYYCARYGKREDMLWVFDYWGQGTLVTVSS VL: DIVMTQSPLSLPVTPGEPASISCDGPSTDVGDYNWVHWYQQKPGQAPRLLIYYTSSKPEGVPDRFSGSGSGTDFTLKISRVEAEDVGVYYCQTYAAPLGPTFGQGTKLEIKR
0.003	0.022	0.084	0.139			0.005	0.03	0.108	0.17		04H1208-G1m/04L1086-lam1 (antibody, human IgG1, lambda, V domains shown) VH: EVQLVESGGGLVKPGGSLRLSCAASGFTFSSKTMNWVRQAPGKGLEWVSSISTRSGYIYYARSVKGRFTISRDNAKNSLYLQMNSLRAEDTAVYYCARYGKREDMLWVFDYWGQGTLVTVSS VL: QSALTQPPSASGSPGQTVTISCDGPSTGVGDYNYVHWYQQHPGKAPKLMIYFTSKKPSGVPDRFSGSKSGNTASLTVSGLQAEDEADYFCQTYAAPLGPMFGGGTKLTVLG
										~10	04H1382-G1m/04L1086-lam1 (antibody, human IgG1, lambda, V domains shown) VH: EVQLVESGGGLVKPGGSLRLSCAASGFTFSSKTMNWVRQAPGKGLEWVSSISTQSHYIYYARSVKGRFTISRDNAKNSLYLQMNSLRAEDTAVYYCARYGKREDMLWVFDYWGQGTLVTVSS VL: QSALTQPPSASGSPGQTVTISCDGPSTGVGDYNYVHWYQQHPGKAPKLMIYFTSKKPSGVPDRFSGSKSGNTASLTVSGLQAEDEADYFCQTYAAPLGPMFGGGTKLTVLG
